Data on eight substances can be found in patent US20030228623A1.

Values joined by “and” are separate entries in the source; they are usually repeats but may differ in a detail not shown here. Equal entries are not always repeated.

Assay [1] addresses streptavidin (streptavidin-coated magnetic beads, Dynal) (UniProt P22629). The experiment in a line: spores (in vivo), streptavidin-coated magnetic beads, washed, plated.
Assay [2] shares this target. The assay can be described thus: spores biotinylated in vivo, streptavidin-coated magnetic beads, washed, plated.
The target is the same in assay [3]. The assay can be described thus: spores incubated in vitro with BirA, biotin and ATP, then streptavidin-coated beads.
Assay [4] has the same target. The assay can be described thus: spores incubated in vitro with BirA, biotin and ATP, then streptavidin-coated beads; input 176,900.
Assay [5] shares this target. The experiment in a line: spores biotinylated in vivo, streptavidin-coated magnetic beads, washed, plated; input 919,300.
Assay [6] has the same target. The assay can be described thus: spores biotinylated in vivo, streptavidin-coated magnetic beads, washed, plated; input 1,075,900.
The target is the same in assay [7]. The assay can be described thus: spores incubated in vitro with BirA, biotin and ATP, then streptavidin-coated beads; input 919,600.
Assay [8] shares this target. The assay can be described thus: phage incubated with streptavidin-coated beads, washed, released with Factor Xa, plated on TG1 cells; 96,500 phage used.
Assay [9] deals with modified streptavidin Stv-38. The experiment in a line: phage on microtiter wells coated with Stv-38, washed, eluted with 3 mM biotin, plated on TG1 cells; input 250,000.
Assay [10] deals with modified streptavidin Stv-38. The assay can be described thus: phage on microtiter wells coated with Stv-38, washed, eluted with 3 mM biotin, plated on TG1 cells.
Assay [11] has as its target streptavidin (streptavidin-coated magnetic beads, Dynal) (UniProt P22629). The assay can be described thus: streptavidin-coated beads capture; phage from host cells grown without added biotin; 109,000 phage used.
The target is the same in assay [12]. The experiment in a line: phage incubated with streptavidin-coated beads, washed, released with Factor Xa, plated on TG1 cells.
Assay [13] shares this target. The experiment in a line: streptavidin-coated beads capture; phage from host cells grown without added biotin.
The target is the same in assay [14]. The experiment in a line: spores incubated in vitro with BirA, biotin and ATP, then streptavidin-coated beads; input 234,900.
Assay [15] has the same target. The experiment in a line: spores (in vivo), streptavidin-coated magnetic beads, washed, plated; input 814,900.
The target in assay [16] is modified streptavidin Stv-38. The experiment in a line: phage on microtiter wells coated with Stv-38, washed, eluted with 3 mM biotin, plated on TG1 cells; input 1,590,500.
For assay [17], the target named is modified streptavidin Stv-38. The experiment in a line: phage on microtiter wells coated with Stv-38, washed, eluted with 3 mM biotin, plated on TG1 cells; input 159,500.
Assay [18] addresses streptavidin (streptavidin-coated magnetic beads, Dynal) (UniProt P22629). The assay can be described thus: phage incubated with streptavidin-coated beads, washed, released with Factor Xa, plated on TG1 cells; 97,500 phage used.
The target is the same in assay [19]. The assay can be described thus: spores biotinylated in vivo, streptavidin-coated magnetic beads, washed, plated; input 10,000.
Assay [20] shares this target. The assay can be described thus: spores (in vivo), streptavidin-coated magnetic beads, washed, plated; input 843,900.
Assay [21] has the same target. The experiment in a line: spores incubated in vitro with BirA, biotin and ATP, then streptavidin-coated beads; input 417,600.

Chain of bacteriophage K (M13 phage displaying on coat protein pIII the 33-residue peptide recognized by BirA) (P69168 19-424): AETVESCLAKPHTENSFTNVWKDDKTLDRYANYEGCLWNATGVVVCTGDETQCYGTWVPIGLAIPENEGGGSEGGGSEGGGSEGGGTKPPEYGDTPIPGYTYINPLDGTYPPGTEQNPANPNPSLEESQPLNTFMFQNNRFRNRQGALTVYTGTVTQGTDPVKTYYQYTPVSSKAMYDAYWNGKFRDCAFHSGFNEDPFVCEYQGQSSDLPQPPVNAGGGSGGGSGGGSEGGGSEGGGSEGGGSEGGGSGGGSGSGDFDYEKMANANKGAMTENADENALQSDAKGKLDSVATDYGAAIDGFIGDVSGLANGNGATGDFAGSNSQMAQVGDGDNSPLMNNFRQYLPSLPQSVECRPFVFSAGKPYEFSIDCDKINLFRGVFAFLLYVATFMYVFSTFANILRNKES
Chain of bacteriophage G (M13 phage displaying on pIII the control peptide with the lysine recognized by BirA replaced by glycine) (P69168 19-424): as above
Chain of streptavidin (streptavidin-coated magnetic beads, Dynal) (P22629 37-163 limits assumed): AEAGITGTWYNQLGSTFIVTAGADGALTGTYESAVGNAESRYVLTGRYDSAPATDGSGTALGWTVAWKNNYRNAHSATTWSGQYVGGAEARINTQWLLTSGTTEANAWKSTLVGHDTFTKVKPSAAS
Chain of spores of PY79-BirA-3G (Fusion 3: Fusion 1 with peptide-G, with the last 41 amino acids of CotB added to its C-terminus) (P07789 whole entry, the tested form may be a part): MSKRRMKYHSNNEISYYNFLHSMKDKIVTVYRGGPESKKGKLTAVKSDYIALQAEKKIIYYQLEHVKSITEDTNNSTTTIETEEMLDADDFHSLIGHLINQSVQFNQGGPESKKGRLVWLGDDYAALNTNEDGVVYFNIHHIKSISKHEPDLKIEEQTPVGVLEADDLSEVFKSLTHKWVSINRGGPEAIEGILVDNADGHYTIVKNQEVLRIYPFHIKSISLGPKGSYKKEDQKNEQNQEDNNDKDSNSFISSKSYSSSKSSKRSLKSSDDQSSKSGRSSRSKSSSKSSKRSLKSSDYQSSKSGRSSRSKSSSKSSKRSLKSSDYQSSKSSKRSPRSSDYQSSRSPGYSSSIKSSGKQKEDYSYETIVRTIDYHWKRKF
Chain of spores of PY79-BirA-3K (Fusion 3: Fusion 1 with peptide-K, with the last 41 amino acids of CotB added to its C-terminus) (P07789 whole entry, the tested form may be a part): as above
Chain of spores of PY79-BirA-1G (Fusion 1: peptide-G added to the C-terminus of CotB following residue 275) (P07789 1-275): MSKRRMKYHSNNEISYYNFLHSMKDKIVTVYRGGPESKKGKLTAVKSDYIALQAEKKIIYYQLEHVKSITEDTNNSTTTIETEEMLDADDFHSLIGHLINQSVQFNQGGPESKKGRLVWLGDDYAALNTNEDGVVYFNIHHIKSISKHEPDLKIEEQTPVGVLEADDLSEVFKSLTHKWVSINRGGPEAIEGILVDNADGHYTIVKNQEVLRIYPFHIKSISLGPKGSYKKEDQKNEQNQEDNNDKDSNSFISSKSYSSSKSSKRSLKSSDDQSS
Chain of spores of PY79-BirA-1K (Fusion 1: peptide-K added to the C-terminus of CotB following residue 275) (P07789 1-275): as above
Chain of spores of PY79-BirA-2K (Fusion 2: peptide-K at the amino end of the first 275 amino acids of CotB) (P07789 1-275): as above
Chain of spores of PY79-BirA-2G (Fusion 2: peptide-G at the amino end of the first 275 amino acids of CotB) (P07789 1-275): as above

Turning to “spores of PY79-BirA-2G (Fusion 2: peptide-G at the amino end of the first 275 amino acids of CotB) (from UniProt P07789 1-275)”, the Ratio (%) in assay [1] came to 0%.

As for “spores of PY79-BirA-3K (Fusion 3: Fusion 1 with peptide-K, with the last 41 amino acids of CotB added to its C-terminus) (from UniProt P07789 1-275; P07789 340-380)”, the Ratio (%) is 0.0283% in assay [2] and 0.071% in [3]. This substance gave an Out in assay [4] of 125 spores. In assay [5], the Out (#) stood at 260 spores.

Consider “spores of PY79-BirA-1K (Fusion 1: peptide-K added to the C-terminus of CotB following residue 275) (from UniProt P07789 1-275)”, for which the Out (#) in assay [6] worked out at 300 spores. In addition, the Ratio (%) was determined as 0.0279% in [2] and 3.26% in assay [3]. In assay [7], the Out came to 30000 spores.

Regarding “bacteriophage K (M13 phage displaying on coat protein pIII the 33-residue peptide recognized by BirA) (from UniProt P69168 19-424)”, in assay [8], the # of bound phage able to bind TG1 cells amounted to 1080 phage. Moreover, the Bound in assay [9] came out at 2130 phage. Further, the Ratio (%) in [10] was 0.504% and 0.852%. In addition, the # of bound phage in assay [11] is 850 phage. Besides, the % bound amounted to 1.11% in [12] and 0.78% in assay [13].

As for “spores of PY79-BirA-3G (Fusion 3: Fusion 1 with peptide-G, with the last 41 amino acids of CotB added to its C-terminus) (from UniProt P07789 1-275; P07789 340-380)”, the Out in [14] turned out to be 250 spores. Also, the Ratio (%) in [1] was 0.0049%; in [3], 0.106%. Also, the Out (#) in [15] amounted to 240 spores.

Consider “bacteriophage G (M13 phage displaying on pIII the control peptide with the lysine recognized by BirA replaced by glycine) (from UniProt P69168 19-424)”, for which the figures for the Bound in assay [16] and in assay [17] were 27 phage and 7 phage, respectively. The Ratio (%) in assay [10] was 0.002% and 0.004%. For the same substance, the % bound in assay [12] was found to be 0.013%. For the same substance, the # of bound phage able to bind TG1 cells in [18] was determined as 13 phage.

In turn, “spores of PY79-BirA-2K (Fusion 2: peptide-K at the amino end of the first 275 amino acids of CotB) (from UniProt P07789 1-275)” returned an Out (#) in [19] of 920 spores. Besides, in [2], the Ratio (%) amounted to 9.2%.

Regarding “spores of PY79-BirA-1G (Fusion 1: peptide-G added to the C-terminus of CotB following residue 275) (from UniProt P07789 1-275)”, the Out (#) in assay [20] turned out to be 100 spores. The Ratio (%) turned out to be 0.0118% in assay [1] and 0.299% in assay [3]. This substance showed an Out in [21] of 1250 spores.
